In patent publication US20260217835 one finds heterodimer formation ratio (%) data, which are given here for one protein.

Where a chain is given by its changes, count along the chain named. Names and notes keep the numbering of the source.

What all share (assay): SEC area ratio of heteromultimer after coexpression of full-length heavy chain, light chain and Fc fragment in Expi293F
The target in data set [1] is T1, IgG1 Fc fragment with CH3 modification E345R/K360E/D399M/Y407A/K409V (SEQ ID NO: 76).
T1 chain: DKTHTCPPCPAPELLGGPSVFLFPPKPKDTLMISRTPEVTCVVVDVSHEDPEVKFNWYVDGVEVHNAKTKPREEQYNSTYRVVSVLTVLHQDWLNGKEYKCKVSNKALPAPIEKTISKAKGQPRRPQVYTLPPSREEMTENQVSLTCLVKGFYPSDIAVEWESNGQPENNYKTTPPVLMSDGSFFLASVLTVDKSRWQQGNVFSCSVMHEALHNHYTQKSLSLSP

Data set [2] addresses T2, IgG1 Fc fragment with CH3 modification E345R/Q347R/K360D/T366V/D399M/Y407A/K409V (SEQ ID NO: 74).
T2 chain: T1 chain with Q127R, E140D, T146V

For data set [3], the target named is T3, IgG1 Fc fragment with CH3 modification E356K/D399K/K409E/K439E (SEQ ID NO: 68).
T3 chain: T1 chain with R125E, E136K, E140K, M179K, A187Y, V189E, K219E

Data set [4] has as its target T4, IgG1 Fc fragment with CH3 modification E356K/K392D/D399K/K409D (SEQ ID NO: 75).
T4 chain: T1 chain with R125E, E136K, E140K, K172D, M179K, A187Y, V189D

The target in data set [5] is T5, IgG1 Fc fragment with CH3 modification K392D/D399K/K409D (SEQ ID NO: 72).
T5 chain: T1 chain with R125E, E140K, K172D, M179K, A187Y, V189D

For data set [6], the target named is T6, IgG1 Fc fragment with CH3 modification K392L/T394W/F405A/Y407V (SEQ ID NO: 70).
T6 chain: T1 chain with R125E, E140K, K172L, T174W, M179D, F185A, A187V, V189K

In data set [7] the target is T7, IgG1 Fc fragment with CH3 modification T350V/L351Y/T366L/K392L/T394W/F405A/Y407V (SEQ ID NO: 77).
T7 chain: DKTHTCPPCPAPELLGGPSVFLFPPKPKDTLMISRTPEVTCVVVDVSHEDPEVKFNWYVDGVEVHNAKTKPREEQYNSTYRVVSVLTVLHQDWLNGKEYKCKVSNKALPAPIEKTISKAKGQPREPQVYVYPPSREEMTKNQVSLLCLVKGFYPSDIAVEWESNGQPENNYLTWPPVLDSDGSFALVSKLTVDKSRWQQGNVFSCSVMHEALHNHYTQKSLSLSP

The target in data set [8] is T8, IgG1 Fc fragment with CH3 modification T366W/L368A/Y407V (SEQ ID NO: 65).
T8 chain: T7 chain with V130T, Y131L, L146W, L148A, L172K, W174T, A185F

Data set [9] has as its target IgG1 Fc fragment with CH3 modification T394F/F405A (SEQ ID NO: 67).
Data set [10] addresses IgG1 Fc fragment with CH3 modification T394W/F405A (SEQ ID NO: 64).
Data set [11] addresses IgG1 Fc fragment, WT (no CH3 modification), SEQ ID NO: 63 in Table 5.

B1: full-length IgG heavy chain with CH3 modification T350V/L351Y/T366L/K392L/T394W/F405A/Y407V (SEQ ID NO: 60), coexpressed with light chain SEQ ID NO: 61 (protein)
chain 1: QVQLQESGPGLVRPSQTLSLTCTVSGYSITSDHAWSWVRQPPGRGLEWIGYISYSGITTYNPSLKSRVTMLRDTSKNQFSLRLSSVTAADTAVYYCARSLARTTAMDYWGQGSLVTVSSASTKGPSVFPLAPSSKSTSGGTAALGCLVKDYFPEPVTVSWNSGALTSGVHTFPAVLQSSGLYSLSSVVTVPSSSLGTQTYICNVNHKPSNTKVDKRVEPKSCDKTHTCPPCPAPELLGGPSVFLFPPKPKDTLMISRTPEVTCVVVDVSHEDPEVKFNWYVDGVEVHNAKTKPREEQYNSTYRVVSVLTVLHQDWLNGKEYKCKVSNKALPAPIEKTISKAKGQPREPQVYVYPPSREEMTKNQVSLLCLVKGFYPSDIAVEWESNGQPENNYLTWPPVLDSDGSFALVSKLTVDKSRWQQGNVFSCSVMHEALHNHYTQKSLSLSP
chain 2: not shown
As to B1, the heterodimer formation ratio (%) in data set [1] is 0%; in [2], 0%; in data set [3], 0%; in [4], 0%; in data set [5], 0%; in data set [6] it was 66%. The heterodimer formation ratio (%) in [7] was found to be 51%; in [8], 0%; in data set [9] it was 4%; in [10], 6%; in [11], 0%.
